From publication doi:10.1101/2021.10.13.464316 (bioRxiv, 2021)
Read-outs that look alike come from different tables or passages of the source.

Key:
Test in all cases: pull-down
6 × His-tagged FER–CD = 6 × His-tagged FER–CD (Arabidopsis thaliana, UniProt Q9SCZ4 469-895)
[1] = molecular target: T1, FER^K565R–CD–His (kinase dead form) (Arabidopsis thaliana, UniProt Q9SCZ4 469-895, K565R)
[2] = molecular target: FER–CD (+ ATP) treated with CIP (Arabidopsis thaliana, UniProt Q9SCZ4 469-895)
[3] = molecular target: T1, FER^K565R–CD–His (kinase dead form); remark: listed apart in the source

Chain of 6 × His-tagged FER–CD (Q9SCZ4 469-895): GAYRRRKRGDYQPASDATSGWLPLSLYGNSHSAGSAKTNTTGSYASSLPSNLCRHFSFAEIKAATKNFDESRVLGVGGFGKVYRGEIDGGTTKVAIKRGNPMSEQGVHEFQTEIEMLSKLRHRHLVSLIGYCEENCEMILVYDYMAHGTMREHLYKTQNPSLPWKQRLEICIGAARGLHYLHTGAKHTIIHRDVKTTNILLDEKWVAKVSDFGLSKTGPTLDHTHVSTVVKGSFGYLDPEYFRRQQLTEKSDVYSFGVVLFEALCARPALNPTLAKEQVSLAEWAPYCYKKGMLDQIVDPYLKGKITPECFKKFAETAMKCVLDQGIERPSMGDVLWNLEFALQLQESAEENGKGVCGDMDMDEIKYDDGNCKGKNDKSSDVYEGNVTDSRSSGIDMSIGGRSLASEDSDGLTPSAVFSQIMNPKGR
T1 sequence (Q9SCZ4 469-895 K565R): as the sequence (Q9SCZ4 469-895) above, with K97R counted along it
Chain of FER–CD (+ ATP) treated with CIP (Q9SCZ4 469-895): as the sequence (Q9SCZ4 469-895) above

Row | Binder | binding result (6 × His-tagged FER–CD) | binding result [1] | binding result [2] | binding result [3]
1 | GST–CAR5 (natural protein) MIVSFLYFSSLFPTSLRKINLVAGEKHKDRRMKPSLMDSLLGLLRIRIKRGVNLAVRDLNSSDPYVVVKMAKQKLKTRVIYKNVNPEWNEDLTLSVSDPNLTVLLTVYDYDTFTKDDKMGDAEFGIKPFVNALKMHLHDLPSGTIVTTVQPSRDNCLAEESRVIWSDGKLVQDIVLRLRHVECGEVEAQLQWIDLPGKGL | binds |  |  | 
2 | GST–CAR6 (natural protein) MEKTEEEVEMKELVGLVRILVKRGIDLARRDALSSDPFVVITMGPQKLKSFTVKNNCNPEWNEELTLAIEDPNEPVKLMVYDKDTFTADDKMGDAQIDMKPFLDVHKLGLKELPHGKELKRIVPTRDNCLSEDSIIVSDNGKIVQDMILLLKNVECGKVEIQLEWLKNPGGSGL | binds |  |  | 
3 | GST–CAR9^3M (natural protein) MEDKPLGILRVHVKRGINLAIRDATAADPFVVITLANQKLKTRVINNNCNPVWNEQLTLSIKDVNDPIRLTVFDKDRFSGDDKMGDAEIDFRPFLEAHQMELDFQKLPNGCAIKRIRPGRTNCLAEESSITWSNGKIMQEMILRLKNVECGEVELMLEWTDGPGCKGLGREGSKKTPWMPTKRLD |  | binds | binds | 
4 | GST–CAR10 (natural protein) MDQKPLGLLTIHVKRGINLAIRDHRSSDPYIVLNVADQTLKTRVVKKNCNPVWNEEMTVAIKDPNVPIRLTVFDWDKFTGDDKMGDANIDIQPYLEALKMGMELLRLPNGCAIKRVQPSRHNCLSDESSIVWNNGKITQDLILRLNNVECGEIEIMLEWHEGAGCRGITSSSKGGGSSST | binds |  |  | 
5 | GST–CAR9 (natural protein) MEDKPLGILRVHVKRGINLAIRDATTSDPYVVITLANQKLKTRVINNNCNPVWNEQLTLSIKDVNDPIRLTVFDKDRFSGDDKMGDAEIDFRPFLEAHQMELDFQKLPNGCAIKRIRPGRTNCLAEESSITWSNGKIMQEMILRLKNVECGEVELMLEWTDGPGCKGLGREGSKKTPWMPTKRLD | binds |  |  | binds
